Measured values published in article PMC11316045.

Tests used:
[1] = FACS of cell surface PD-L1, H460; settings: glycan lost; control: wild type
[2] = anti-Flag immunofluorescence, also with HSP90B1/DAPI co-staining; settings: glycan lost; control: wild type
[3] = anti-Flag immunofluorescence, H460 and PD-L1 KO cells; settings: glycan lost; control: untreated

In the case of PD-L1: N35Q, the localisation_or_trafficking [1] is reported as “no change” and the localisation_or_trafficking [2] is reported as “no change”.

With PD-L1: N192Q the localisation_or_trafficking [1] was “no change” and the localisation_or_trafficking [2] was “no change”.

For PD-L1: N200Q, the localisation_or_trafficking [1] was “no change” and the localisation_or_trafficking [2] was “no change”.

With PD-L1: N219Q the localisation_or_trafficking [1] was “decreases” and the localisation_or_trafficking [2] was “changes”.

In the case of PD-L1: tunicamycin (5μg/ml), the localisation_or_trafficking [3] is reported as “changes”.
